According to the DeepSol protein solubility set:

assay: soluble on expression in E. coli; label from the status in PepcDB or PDB records

Sequence | soluble on expression in E. coli
MGSDKIHHHHHHMQFGAKPLFENVSVKFGNGNRYGLIGANGCGKSTFMKILGNDLEPSAGQVMLEPNVRLGKLRQDQFAYEDFSVIDTVIMGHEELWAVKAERDRIYSLPEMSEADGMAVAELEVQFAEFDGYTAESRAGELLLGLGIPLEQHFGPMSAVAPGWKLRVLLAQALFSDPDVLLLDEPTNHLDINTIRWLEGVLTARNSTMIIISHDRHFLNSVCTHMADLDYGELRLFPGNYDEYMTAAEQARERLLSDNAKKKAQIAELQSFVSRFSANASKAKQATSRARQIDKIQLEEVKPSSRVSPFIRFEQYKKLHRQAVTVENISKGYDGKPLFKGLSLQVEAGERVAIIGPNGIGKTTLLRCLVGDLPVDGGEVKWTDSADVGYFAQDHADDFADDMSLFDWMAQWTQGGEQLVRGTLGRMLFSNDEIKKSVKVISGGEQGRMLFGRLILKRPNVLVMDEPTNHLDMESIEALNLALDNYPGTLIFVSHDREFVSSLATRIIELGENGVTDFSGSYDDYLRSQGVIV | not soluble
MGSDKIHHHHHHMQGIAFQDAYPDDLSHCYGCGRNNEQGHQLKSYWRGEQTIAHFMPKPFHTAIPGFVYGGLIASLIDCHGTGSASAAAQRALEQAGEQLDEPPRFVTAALNIDYLAPTPMGVELELVGEIKEVKPRKVVVEIALSADGKLCARGHMVAVKMPETMAATSA | not soluble
MGSDKIHHHHHHMQGTQQSLPLAVVRGQAMTEMPQDLFIPPEALEVFLESFEGPLDLLLYLIRKQKLDVVDLPISQITAQYLEYIAMLTQARIELASDYLVMAATLAEIKSRLLLPRMVAEDEVEEDPRAQLIRQLKAYEVIKEASQKIDDLPRLERDVFQATAAPSPNIKPLVIPPDVSLFEIARAFGDVLKRIDAYEDHHVKREQLSTRERMSQILAMLNSEDFTPFERLFSVEEGRAGVVVTFLALMELVKELLVELYQTEPFSTIYVKAY | not soluble
MGSDKIHHHHHHMQIAVSGGKGGTGKSTVAINLAVELAKKFKLVLADLDVEAPNDHLLLGVELQNEREVHQFMPKFNYSKCIKCRKCAEACEEHAIVTLRDGTPFLMPTLCSGCRACEIVCPVPGAIEEGSRLIGHTYETLTPYGFTLVTGKLREGEERSMPLVVAAKRRAKELKWDLLIVDTAAGTGNTVSKAIEGSQLLIAVTEPTPLGIHDTELILKLGELMRIETWIVINRSDLGDVKEVYRRAKKYNAEVIAEIPYSENIVKTYVAGKPIVTTDYPEAGIFREIAEKVYEFLR | not soluble
MGSDKIHHHHHHMQIISHRGYWLHKPERNLTQAFHRSFDFGFGTETDVRDVAGQLVISHDMPVGGELTLDGLLDIMAGRNLPLAINVKADGMALALKKTFARYGHTNWFVFDMAVPDMRSYLIEEVITYSRLSDVEPSPAWLERATGVWLDGFDSEWFSNQVIGDLLSQDKQVCVVSPELHGRDCMALWQQLLEFRSENRLTLCTDTPVDAAIFFK | not soluble
MGSDKIHHHHHHMQLLKELCSIHAPSGNEEPLKDFILEYIRSNAGSWSYQPVIYADNDLQDCIVLVFGNPRTAVFAHMDSIGFTVSYNNHLHPIGSPSAKEGYRLVGKDSNGDIEGVLKIVDEEWMLETDRLIDRGTEVTFKPDFREEGDFILTPYLDDRLGVWTALELAKTLEHGIIAFTCWEEHGGGSVAYLARWIYETFHVKQSLICDITWVTEGVEAGKGVAISMRDRMIPRKKYVNRIIELARQTDIPFQLEVEGAGASDGRELQLSPYPWDWCFIGAPEKDAHTPNECVHKKDIESMVGLYKYLMEKL | not soluble
MGSDKIHHHHHHMQLSSRPSSLVLDHHQNKFLTPWSDPADPHILFPIQPLEQLLVQLGWPDPQAWLIHWQKRGGISLKRPFWHPSTRTDWIWGLGLPLLTLVEGCLGKSDRSLLGITGLPGCGKTSLGCWLEAAAGELGWPIKVISLDDFYWPFPQLDRSMSGNPWRVPRALPGSHDLDLLASVLDTWQSTGHLKAPMFDKALRHGRGDRDGWHLSDPKVLVIEGWILGCLPCKFAEAGQFSDQLVPPLNKLEHDYRLVVQEALNGYVPIWDRLDTLWHLKAIDPSSTRIWKANQESLMQLNRGVCLDQESFEGFVRMILASIPLTCLDGIEADVVATLTPARQLMWVGQRGYQDSSSSDSCIG | not soluble
MGSDKIHHHHHHMQMDLETAVMKKKESLNETDKAIVSYLLKYPEDASKLSLMELAQKLYVSKSAIFRLSKKLGLSGFSELKFELTELTNKKVQNKKYVQELDFNNNLHQIIDETFKYFKDANFHDLFIDLDNAETIYIYSTGWQQQIIAEYLAHSFFLIGKKAIILPSAKDEVAMLGRSIEENDMLFVISFGGFNKTIIEELKKIDTVTDKLKFVSLTSWQPGKIASLSDYSFFFKTTPFQISNQNAVTFSSAYVLIDLIINEYGKHCNSKK | not soluble
MGSDKIHHHHHHMQRIAENYDALPRQLKNVATYIEQHRSSVMVDRTSDIAASCGVHPSAVVRFAQRFGFSGFSDLQAVFRQAYTGQGSSSPSYQQRIRKLIDEKPGALSGGSVAREFIAASRGGLEELEAGLDDKQFDAAVKMLQQADNIYVIGVRRSFPVASYIVYALQHTPKRVHLVSGFGGMYREQIRSVKKGDVVIAISFAPYGKETQYCLRVAHHHQARTLVITDSQLSPLARYATTQLYVKEGSAFAFRSLTSTICLCQALFIALAYKLELNVEESKDTGGYDD | not soluble
MGSDKIHHHHHHMQYNFKVEAFEGPLDLLLHLIHRYEIDIYNIPVAEITEQYLSYVHTMKELQLDVASEYLVMAATLLQIKSKMLLPKHEEDVLDNGDDFIDDPRQELMERLIEYKKYKQVATELKEREQERAQLYTRPPIDFTSLQQEEETSLPLDVTLYDMLAAFQKLMRRKKAKKPVTTRITRQEIPIEQRMTDILKQLEIQGGRQSFYDLFVDDEREIMVVTFLAVLELMKNQQIVIEQEHNFDEIFVSSYTKSA | not soluble
MGSDKIHHHHHHMRADLTPFLNDRLDWNLLRTYLVIMQERSVSRAAARLHVTQPAVSQALRRLEDTLERKLIERRGAHFAPTPAGEAVYRIASDIYGGVSRLETELDDSTADLTGSIRLLTVSRIESPVYDAFLADFHRAYPRIDLQIEVMRSSDILSSLLQKTATAGLGLCRTPHDKLEMRCFLRQRYAIYCGRHHRLFGQTQLRMEDLLAENFVSFTSDQIGDSLSPLTVFRDQKGFTGRIVASSPSLEEVRRLIFAGYGIGCLPEHIVRDDIAQQRLWRLPPDDGLVDVDVFLLWHRDRKMNAAEHAFLDAMERCMQQHSLAERLGM | not soluble
MGSDKIHHHHHHMRAHVTKKTLSEGLGLLERVIPSRSSNPLLTALKVEASEAGLTLSGTNLEIDLSYFVPAEVQAPQSFVIPAHLFAQIVRNLGGELVELELTGGELSVRAGGSDFKLQTGDLEAYPPLSFPTHTDVSLDAAELARALGSVRYAASNEAFQAVFRGIKLEHRPASARVVASDGYRVAIRDFPASGDGRNLIVPARSADELIRVLKDGEARFTYGEGLLSVTTDRVRMNLKLLDGEFPDYERVIPKDVKLQVTLPATALKEAVGRVAVLADKNANNRVEFLVSEGKLRLAAEGDYGRAQDTLDVVQGGAEPAMSLAFNARHVLDALGPIEGDAELLFSGSTSPAIFRASGGGDYMAVMVTLRV | not soluble
MGSDKIHHHHHHMRASVSPDIFPPRGHEAKRLSIVDAAAGVFCREGFAGANIDLIAAEAGVSRQTVYNHHGDKEKLFMAVVRDLTDRCNVGIFATIATFPDQPGDLEADLIGFAVRLNQNCICNRDGKFLRKLIQTEGERYPELFAEWREQGPGTTLPAIAARFARLAYGGYLTIDDPDVAARQFFGLVNAELQTTFMLGGTPREDEVVRSATNGVRTFLRAFGKRPAPGSVKKHIALANA | not soluble
MGSDKIHHHHHHMRDLLNDLSEGLSHPDPILRAQIQMQKPLPKRFYKDVTVADVEEGGFTILLDGKPLRTPAKKPLVAPSRALADLLRDEWDAQKEVVNPVVMPVSRHVNTAIDGIASDTQAVFEDILRFSSSDLLCYRAGDPEALVARQTDYWDPVLDWATNVLGARFILVEGVMHRDQPREAIAAFAVTLKKYDTPIALAALHTMTSLTGSAILALALAEGELTLEEAWALAHLDEDWTAEQWGEDEEALERRAVRLIDMRAALNVLESLKSAS | not soluble
MGSDKIHHHHHHMREISMDWNDLRFFLEVARTSSLTKTAIKLKVSQSTVSRRIGALESSLKTRLFLHHQTGYFLTDVGKEVLKYAEDVEGKVGTLEKKISGRDLAPAGIVRLATAVTLANHLIIPQLPRFMACYPEIILELVTGVNTVSVVRNDADIALRLVRPEQNSLKIRKVGVVASAVYGSETYVREHPAPEDNPIIGRSFITWDKSFSHLPSARWLNEHFPDMTSTLALTSLVTQIAAANAGLGLAVLPCFIAAQNSDLVEVIHTQRVFSEDLWLVSHTDLIASSRIRVVADFLMEIIAEAHLA | not soluble
MGSDKIHHHHHHMREVFQRLKQAILEKQDTMLLTIGTSSGSTPRSQGARMLVSAEGRIAGTVGGGAVEFQAEQVAKKLVLEKENAQRQFILAPNNIADLGMVCGGNVTIFFHYLSWETPFLKELCESIETHFQNNQQGWLVTELDQNNLGKVSFYSETGELIGSTSWEGELSLLPKGIHCEQKEDIIFLTEAILQVGKVYIFGSGHVARALVPILNYLSFYCVVVDDRPEFLTAQAFPQAEELRVIPLENLAAFIEITADDYGIVITRGHNFDFIVAKQLLETPAKYIGVMGSKHKIASQVRRLKEVGYTMTEIERIFMPIGLDIAAETPEELAISIAGELIQQRYQ | not soluble
MGSDKIHHHHHHMRFIAGPLNKQLLQNLLGEVIESCTRVRAAVAYASRDNMKLFEACAQHLKPLEFFGRYDHTVAVDPAVLKWFLDKASPNYDCKLVPDILHAKIIWWVDAGAYIGSANLSDRAWISNIEAGTFLPHDELVETGMERELQRFFEEVDDRARPLTKEIYQEQLRLADRRSELSKREYGLEQQFDKDRLLPKNHGLVFVDTKRSSEKRFQKFEQDWNDTLQVMRSIASRVAAPGAKPAWIDASVAPGVQADQFLHAYYYKQVKDGNRHPYEEFFDRNSKNPELALRDALEWWHDADFDHSFEERTIYEWSPRLRELLARDRILKLTEQEFVDAVSRVHAIRDHAIKQENEHLGLPDRPQAGDDKVEKFGEWLWRQRSREGRTVLELLNYVVWGNGSVSARLWNAIRSDDWAIPHIGLSSLGEIVGWARPDEYPPRNMRTSKGLRALGYNVRIGV | not soluble
MGSDKIHHHHHHMRGRGMDIFISKKMRNFILLAQTNNIARAAEKIHMTASPFGKSIAALEEQIGYTLFTRKDNNISLNKAGQELYQKLFPVYQRLSAIDNEIHNSGRRSREIVIGIDNTYPTIIFDQLISLGDKYEGVTAQPVEFSENGVIDNLFDRQLDFIISPQHVSARVQELENLTISELPPLRLGFLVSRRYEERQEQELLQELPWLQMRFQNRANFEAMIDANMRPCGINPTIIYRPYSFMAKISAVERGHFLTVIPHFAWRLVNPATLKYFDAPHRPMYMQEYLYSIRNHRYTATMLQHIAEDRDGTSH | not soluble
MGSDKIHHHHHHMRHAYRQFGPGTLYTVRLLRALDYLWRHLDEPLLLDRLAEEACFSRFHFHRLYRNLMGETVMESRQRMLLHRAAGELGRADRPLASVAVRAGFSSSAAFIRAFAGRYGETPGRYRQRRLMFLNQRERTMRQVEIVERDAVKVLMRHHRGPYMEIGKAFDALRAVQGPQQGVGAPSRSFGLYLDDQAQTPAADCRSIACATVPAFMEGKAMDGFEWGSIPAGRYAAVLHTGPYSELGECWDWLYRHWLPASGEMPGDTPCVEEYLNAPYDTPPAELKTLLLLSLA | not soluble
MGSDKIHHHHHHMRIAIDPFMHRHLSLEELPRKVRELGYDWIEMSPRADFLEWFKAPRVFPQRMKEFKKALAAENVKIASLLPMYRWASNDETERKAAVKHWKRAIEIAVEMEIDTMNSEFGRGPHPDKGSCYCCHTGSMIEACEDAWWRSMEELVPVFERENIQLNIEPHPEDWCETLQPALDIIRTVNSKNVKFLYCAPHTFYFGDDTKAMLREAKDVLAHVHVGDTFNHKASSGLRYILNPPGTQARVHQHLNIGQGEVPWDDFFGTLAEIGFDGTMTACVFAWEDRADHSGKFMLSEMNRYIEKYWPK | not soluble
